{"source": "paper PMC5004899", "about": "“Architecture of the caveolar coat complex” (Journal of Cell Science, 2016)", "molecular_target": "the molecule itself", "assay": "cross-linking; DSP cross-linking in live HeLa cells; purified 80S-CCC; partial reduction of DSP crosslinks by titration of DTT; western blots"}
{"protein": "cavin-1 (natural protein, human (endogenous in HeLa), UniProt Q6NZI2-1 1-390, looked up, DSP-modified lysine residues (seven of 11 lysines in the HR1 domain, six of 17 in the HR2 domain; marked in Fig. 1D), human cavin-1 (PTRF), NP_036364.2; HR1 domain amino acids 49-163, HR2 domain amino acids 210-300; Detected with rabbit anti-PTRF (Abcam ab48824); also called PTRF; source: endogenous, HeLa lysate (cells DSP-cross-linked alive)) MEDPTLYIVERPLPGYPDAEAPEPSSAGAQAAEEPSGAGSEELIKSDQVNGVLVLSLLDKIIGAVDQIQLTQAQLEERQAEMEGAVQSIQGELSKLGKAHATTSNTVSKLLEKVRKVSVNVKTVRGSLERQAGQIKKLEVNEAELLRRRNFKVMIYQDEVKLPAKLSISKSLKESEALPEKEGEELGEGERPEEDAAALELSSDEAVEVEEVIEESRAERIKRSGLRRVDDFKKAFSKEKMEKTKVRTRENLEKTRLKTKENLEKTRHTLEKRMNKLGTRLVPAERREKLKTSRDKLRKSFTPDHVVYARSKTAVYKVPPFTFHVKKIREGQVEVLKATEMVEVGADDDEGGAERGEAGDLRRGSSPDVHALLEITEESDAVLVDKSDSD", "values": [{"measurement": "stoichiometry N", "value": 3}]}
